Substitutions are numbered along the chain they refer to. In names and notes the source's numbering stands.
B1: GST-tagged NH2-terminal region of slow myosin binding protein-C (Pro/Ala-rich motif, Ig C1 and M-motif), Y247H (domain or fragment)
chain: MPEPTKKEENEVPAPAPPPEEPSKEKEAGTTPAKDEEEVSPPSALPPGLGSRALERKDSDWTLVETPPGEEQAKQNANSQLSILFIEKPQGGTVKVGEDITFIAKVKAEDLLRKPTIKWFKGKWMDLASKAGKHLQLKETFERHSRVYTFEMQIIKAKDNFAGNYRCEVTYKDKFDSCSFDLEVHESTGTTPNIDIRSAFKRSGEGQEDAGELDFSGLLKRREVKQQEEEPQVDVWELLKNAKPSEHEKIAFQYGITDLRGMLKRLKRMRREEKKSAAFAKILD
B2: GST-tagged NH2-terminal region of slow myosin binding protein-C (Pro/Ala-rich motif, Ig C1 and M-motif), E248K (domain or fragment)
chain: B1 chain with H247Y, E248K

Target: Heavy meromyosin (HMM)
Test: far-Western, overlay or dot blot

| Binder | fold binding against wild type |
| --- | --- |
| B1 | 2 fold |
| B2 | 3.5 fold |
